Experimental data from the supplement of paper PMC9112550, “Optimization of the antimicrobial peptide Bac7 by deep mutational scanning” (BMC Biology, 2022).

test system: Escherichia coli TOP10; test: shrunken log2 fold change of peptide-encoding DNA abundance (4.5 h post-induction vs induction); higher = less antimicrobial activity (less host growth inhibition); details: time post-induction: 4.5 h; library: site-saturation at positions 5, 18, 19, 20
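Also: peptides expressed intracellularly from a pBAD plasmid library in pooled LB shake-flask culture, induced with 0.3% L-arabinose, DNA abundance read by NGS, three biological replicates, DESeq2 with apeglm shrinkage.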

Sequence	shrunken log2 fold change
RRIRFRPPRLPRPRPRPHVPPRP	-0.315
RRIRYRPPRLPRPRPRPCYKPRP	-0.0156
RRIRRRPPRLPRPRPRPSTRPRP	0.194
RRIRIRPPRLPRPRPRPNTYPRP	-1.02
RRIRGRPPRLPRPRPRPGLMPRP	0.799
RRIRYRPPRLPRPRPRPPQKPRP	-0.123
RRIRFRPPRLPRPRPRPEYLPRP	-0.203
RRIRLRPPRLPRPRPRPDMPPRP	-0.269
RRIRYRPPRLPRPRPRPSCEPRP	-0.586
RRIRRRPPRLPRPRPRPGYCPRP	-0.0631
RRIRCRPPRLPRPRPRPLGMPRP	-0.433
RRIRYRPPRLPRPRPRPVYKPRP	-0.924
RRIRQRPPRLPRPRPRPGLTPRP	-0.483
RRIRVRPPRLPRPRPRPDDQPRP	-0.00455
RRIRWRPPRLPRPRPRPGSKPRP	0.0611
RRIRIRPPRLPRPRPRPKLSPRP	0.144
RRIRARPPRLPRPRPRPYHAPRP	-0.0253
RRIRTRPPRLPRPRPRPFDKPRP	-0.154
RRIRHRPPRLPRPRPRPGFWPRP	0.0409
RRIRTRPPRLPRPRPRPSLHPRP	-0.604
RRIRHRPPRLPRPRPRPPHIPRP	-0.287
RRIRFRPPRLPRPRPRPYWWPRP	-0.198
RRIRLRPPRLPRPRPRPYKNPRP	-0.631
RRIRVRPPRLPRPRPRPFHAPRP	-0.229
RRIRDRPPRLPRPRPRPIHTPRP	-0.159

Sequence	shrunken log2 fold change
RRIRERPPRLPRPRPRPPKQPRP	0.0175
RRIRMRPPRLPRPRPRPDNTPRP	0.28
RRIRQRPPRLPRPRPRPPVSPRP	-0.203
RRIRQRPPRLPRPRPRPPDYPRP	0.00906
RRIRRRPPRLPRPRPRPPKIPRP	0.403
RRIRWRPPRLPRPRPRPIYGPRP	-0.0358
RRIRFRPPRLPRPRPRPKNEPRP	-0.137
RRIRWRPPRLPRPRPRPPCFPRP	0.108
RRIRPRPPRLPRPRPRPGNYPRP	-0.36
RRIRVRPPRLPRPRPRPKSPPRP	0.272
RRIRYRPPRLPRPRPRPRSTPRP	-0.156
RRIRWRPPRLPRPRPRPVQKPRP	0.0836
RRIRYRPPRLPRPRPRPAYYPRP	-0.318
RRIRMRPPRLPRPRPRPTWIPRP	0.0438
RRIRARPPRLPRPRPRPQDYPRP	-0.159
RRIRRRPPRLPRPRPRPPPQPRP	1.27
RRIRTRPPRLPRPRPRPVLMPRP	0.187
RRIRCRPPRLPRPRPRPYSSPRP	0.00688
RRIRDRPPRLPRPRPRPSDHPRP	-0.422
RRIRKRPPRLPRPRPRPVIVPRP	-0.0233
RRIRHRPPRLPRPRPRPKHAPRP	0.126
RRIRDRPPRLPRPRPRPIAYPRP	-0.114
RRIRARPPRLPRPRPRPHIQPRP	-0.164
RRIRDRPPRLPRPRPRPFPCPRP	0.0367
RRIRIRPPRLPRPRPRPEVSPRP	0.068

Sequence	shrunken log2 fold change
RRIRKRPPRLPRPRPRPNVCPRP	-0.144
RRIRNRPPRLPRPRPRPLCGPRP	-0.13
RRIRVRPPRLPRPRPRPMFVPRP	0.00262
RRIRVRPPRLPRPRPRPNIRPRP	-0.664
RRIRERPPRLPRPRPRPGPPPRP	0.317
RRIRMRPPRLPRPRPRPHFFPRP	-0.134
RRIRSRPPRLPRPRPRPQNLPRP	-0.394
RRIRSRPPRLPRPRPRPCDKPRP	-0.324
RRIRSRPPRLPRPRPRPMYWPRP	-0.134
RRIRCRPPRLPRPRPRPGDGPRP	0.646
RRIRERPPRLPRPRPRPLPYPRP	-0.345
RRIRDRPPRLPRPRPRPKFQPRP	0.00463
RRIRVRPPRLPRPRPRPQMIPRP	-0.425
RRIRARPPRLPRPRPRPYWEPRP	-0.312
RRIRMRPPRLPRPRPRPVHSPRP	0.0125
RRIRRRPPRLPRPRPRPILEPRP	0.0696
RRIRIRPPRLPRPRPRPTTYPRP	-0.868
RRIRKRPPRLPRPRPRPEGMPRP	0.194
RRIRFRPPRLPRPRPRPLVNPRP	-0.0651
RRIRARPPRLPRPRPRPVSDPRP	0.576
RRIRTRPPRLPRPRPRPPDAPRP	0.232
RRIRSRPPRLPRPRPRPQPQPRP	0.47
RRIRWRPPRLPRPRPRPAFWPRP	0.708
RRIRTRPPRLPRPRPRPIQNPRP	-0.147
RRIRPRPPRLPRPRPRPPPRPRP	0.91

Sequence	shrunken log2 fold change
RRIRDRPPRLPRPRPRPYCTPRP	-0.253
RRIRMRPPRLPRPRPRPGEEPRP	3.02
RRIRGRPPRLPRPRPRPCYMPRP	-0.328
RRIRDRPPRLPRPRPRPNHIPRP	-1
RRIRNRPPRLPRPRPRPDFFPRP	-0.138
RRIRKRPPRLPRPRPRPNDMPRP	0.194
RRIRLRPPRLPRPRPRPDNAPRP	0.0803
RRIRQRPPRLPRPRPRPVNFPRP	-0.346
RRIRIRPPRLPRPRPRPCDQPRP	-0.021
RRIRERPPRLPRPRPRPYANPRP	0.0234
RRIRDRPPRLPRPRPRPDLMPRP	0.043
RRIRSRPPRLPRPRPRPLAHPRP	-0.0709
RRIRGRPPRLPRPRPRPMQKPRP	0.61
RRIRFRPPRLPRPRPRPCPWPRP	-0.0658
RRIRDRPPRLPRPRPRPELKPRP	-0.00616
RRIRQRPPRLPRPRPRPHKIPRP	0.00423
RRIRYRPPRLPRPRPRPEVAPRP	-0.0541
RRIRLRPPRLPRPRPRPVNGPRP	-0.0366
RRIRLRPPRLPRPRPRPPTVPRP	0.026
RRIRERPPRLPRPRPRPTFFPRP	0.321
RRIRMRPPRLPRPRPRPSTKPRP	0.291
RRIRMRPPRLPRPRPRPLFYPRP	-0.305
RRIRMRPPRLPRPRPRPSSSPRP	0.0411
RRIRHRPPRLPRPRPRPYSEPRP	-0.29
RRIRTRPPRLPRPRPRPQIVPRP	0.0532

Sequence	shrunken log2 fold change
RRIRGRPPRLPRPRPRPFCIPRP	0.494
RRIRYRPPRLPRPRPRPDSHPRP	-0.782
RRIRVRPPRLPRPRPRPDVWPRP	-0.0858
RRIRCRPPRLPRPRPRPTGSPRP	0.0208
RRIRVRPPRLPRPRPRPWQMPRP	-0.00669
RRIRQRPPRLPRPRPRPQMWPRP	0.0113
RRIRQRPPRLPRPRPRPPYDPRP	-0.152
RRIRHRPPRLPRPRPRPRTTPRP	0.136
RRIRSRPPRLPRPRPRPILCPRP	-0.35
RRIRNRPPRLPRPRPRPLYYPRP	-0.0384
RRIRSRPPRLPRPRPRPWPFPRP	0.0554
RRIRERPPRLPRPRPRPCTQPRP	-0.00926
RRIRCRPPRLPRPRPRPENMPRP	-0.57
RRIRHRPPRLPRPRPRPYHHPRP	-0.607
RRIRIRPPRLPRPRPRPIRVPRP	-0.0611
RRIRTRPPRLPRPRPRPGKYPRP	-0.755
RRIRERPPRLPRPRPRPCRTPRP	-0.203
RRIRFRPPRLPRPRPRPLPFPRP	-0.452
RRIRKRPPRLPRPRPRPVAPPRP	0.528
RRIRYRPPRLPRPRPRPCMIPRP	-0.731
RRIRGRPPRLPRPRPRPTAKPRP	1.92
RRIRNRPPRLPRPRPRPDEMPRP	-0.00822
RRIRDRPPRLPRPRPRPPSIPRP	-0.0216
RRIRKRPPRLPRPRPRPQMFPRP	-0.00577
RRIRPRPPRLPRPRPRPFPKPRP	0.166

Sequence	shrunken log2 fold change
RRIRVRPPRLPRPRPRPQIRPRP	-0.305
RRIRGRPPRLPRPRPRPLEWPRP	1.03
RRIRQRPPRLPRPRPRPRYWPRP	-0.0336
RRIRPRPPRLPRPRPRPNGFPRP	-0.216
RRIRIRPPRLPRPRPRPSIEPRP	-0.407
RRIRHRPPRLPRPRPRPIETPRP	-0.00822
RRIRERPPRLPRPRPRPVKYPRP	-0.0311
RRIRTRPPRLPRPRPRPHYPPRP	-0.782
RRIRCRPPRLPRPRPRPFEGPRP	0.0192
RRIRARPPRLPRPRPRPHISPRP	-0.278
RRIRLRPPRLPRPRPRPMLWPRP	0.00318
RRIRLRPPRLPRPRPRPCSDPRP	0.0181
RRIRPRPPRLPRPRPRPHTTPRP	0.0817
RRIRMRPPRLPRPRPRPGTCPRP	0.851
RRIRKRPPRLPRPRPRPHYLPRP	0.0182
RRIRVRPPRLPRPRPRPEMDPRP	0.111
RRIRCRPPRLPRPRPRPIEHPRP	-0.00454
RRIRSRPPRLPRPRPRPNVPPRP	-0.131
RRIRCRPPRLPRPRPRPLQNPRP	-0.0876
RRIRKRPPRLPRPRPRPLLMPRP	-0.109
RRIRSRPPRLPRPRPRPYWKPRP	-0.144
RRIRRRPPRLPRPRPRPGALPRP	0.502
RRIRHRPPRLPRPRPRPRWTPRP	0.0902
RRIRARPPRLPRPRPRPWGYPRP	-0.317
RRIRTRPPRLPRPRPRPNALPRP	-0.0225
